From paper PMC5493779, “Recognition of a glycosylation substrate by the O-GlcNAc transferase TPR repeats” (Open Biology, 2017)
One block for each binder: values may come before it. Where no end group is shown, it is not given here.

What was measured:
[1] = target: His6-hOGT (312-1031) 5N5A quintuple mutant (human) (UniProt O15294)
[2] = target: T1, human O-GlcNAc transferase, truncated (315-1031), as it stands in the substrate:OGT fusion proteins (human, UniProt O15294-3 315-1031); experiment: crystal structure; substrate peptide fused through a 3xGly linker to the N-terminus of OGT 315-1031 (one chain); about 10 mg/ml protein with 5 mM UDP, sitting drop, 0.1 M Tris pH 8.5; one molecule per asymmetric unit; conditions: both partners purified
T1 construct: human O-GlcNAc transferase (OGT), codon-optimised, residues 315-1031 starting at Thr315; holds TPR repeats and the catalytic domain; In the crystals this stretch is joined on one chain to the substrate peptide (m2 or m3) by a GGG linker; the whole chains are m4 and m5; also called hOGT; source: E. coli BL21 (DE3) pLysS, purified (Ni-NTA, anion exchange, gel filtration) as part of the fusion …
T1 sequence (looked up): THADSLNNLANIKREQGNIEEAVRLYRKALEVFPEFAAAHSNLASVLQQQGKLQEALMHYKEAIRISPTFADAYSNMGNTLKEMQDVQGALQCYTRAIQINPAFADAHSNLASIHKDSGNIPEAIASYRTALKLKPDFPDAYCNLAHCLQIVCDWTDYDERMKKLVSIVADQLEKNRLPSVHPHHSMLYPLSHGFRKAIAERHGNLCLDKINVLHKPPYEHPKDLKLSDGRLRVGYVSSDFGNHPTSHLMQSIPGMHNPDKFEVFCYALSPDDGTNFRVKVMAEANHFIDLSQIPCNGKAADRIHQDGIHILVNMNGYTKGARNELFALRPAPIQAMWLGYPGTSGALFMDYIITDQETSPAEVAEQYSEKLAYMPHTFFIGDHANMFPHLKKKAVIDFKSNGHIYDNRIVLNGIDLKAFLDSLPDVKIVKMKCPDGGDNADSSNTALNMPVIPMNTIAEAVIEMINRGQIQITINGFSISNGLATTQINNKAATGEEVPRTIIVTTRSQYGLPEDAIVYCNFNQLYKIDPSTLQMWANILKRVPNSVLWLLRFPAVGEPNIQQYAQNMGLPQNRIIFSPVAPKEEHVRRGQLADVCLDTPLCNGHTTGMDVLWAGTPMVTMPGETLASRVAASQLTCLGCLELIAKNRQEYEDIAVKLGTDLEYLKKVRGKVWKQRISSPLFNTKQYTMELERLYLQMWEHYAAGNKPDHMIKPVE

[3] = target: T2, His6-hOGT (312-1031), wild type (human) (UniProt O15294)
T2 sequence: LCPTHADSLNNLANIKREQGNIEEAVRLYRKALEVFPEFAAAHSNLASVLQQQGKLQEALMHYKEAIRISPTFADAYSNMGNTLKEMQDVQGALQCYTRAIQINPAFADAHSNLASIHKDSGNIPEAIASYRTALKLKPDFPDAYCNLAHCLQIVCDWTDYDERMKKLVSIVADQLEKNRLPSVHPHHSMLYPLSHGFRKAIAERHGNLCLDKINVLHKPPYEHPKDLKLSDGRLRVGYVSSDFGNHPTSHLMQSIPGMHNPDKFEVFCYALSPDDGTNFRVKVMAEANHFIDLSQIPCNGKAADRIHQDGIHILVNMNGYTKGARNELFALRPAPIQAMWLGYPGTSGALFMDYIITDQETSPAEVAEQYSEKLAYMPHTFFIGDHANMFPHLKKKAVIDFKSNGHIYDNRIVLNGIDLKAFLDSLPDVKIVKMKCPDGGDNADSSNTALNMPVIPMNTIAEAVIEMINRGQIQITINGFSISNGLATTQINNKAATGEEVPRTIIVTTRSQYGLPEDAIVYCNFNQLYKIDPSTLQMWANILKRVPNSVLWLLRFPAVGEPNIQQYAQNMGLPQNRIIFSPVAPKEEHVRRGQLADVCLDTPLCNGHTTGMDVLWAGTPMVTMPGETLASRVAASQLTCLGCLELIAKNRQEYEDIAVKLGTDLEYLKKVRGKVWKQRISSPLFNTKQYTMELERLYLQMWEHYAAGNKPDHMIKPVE

- reduction of glycosyltransferase activity on TAB1 (7-409) against WT OGT, western blot with an O-GlcNAc Ser395 specific antibody, quantified [1]: 50%
B1: TAB1 (7-409) protein (domain or fragment)
chain: SLLQSEQQPSWTDDLPLCHLSGVGSASNRSYSADGKGTESHPPEDSWLKFRSENNCFLYGVFNGYDGNRVTNFVAQRLSAELLLGQLNAEHAEADVRRVLLQAFDVVERSFLESIDDALAEKASLQSQLPEGVPQHQLPPQYQKILERLKTLEREISGGAMAVVAVLLNNKLYVANVGTNRALLCKSTVDGLQVTQLNVDHTTENEDELFRLSQLGLDAGKIKQVGIICGQESTRRIGDYKVKYGYTDIDLLSAAKSKPIIAEPEIHGAQPLDGVTGFLVLMSEGLYKALEAAHGPGQANQEIAAMIDTEFAKQTSLDAVAQAVVDRVKRIHSDTFASGGERARFCPRHEDMTLLVRNFGYPLGEMSQPTPSPAPAAGGRVYPVSVPYSSAQSTSKTSVTLSL

- binding result [2]: binds
B2: 18-mer TAB1 peptide derived from the S395 glycosylation site (VPYSSAQSTSKTSVTLSL) (peptide)
peptide: VPYSSAQSTSKTSVTLSL
modifications: also: O-GlcNAc on Ser395
notes: In the crystal its C-terminus is joined by a GGG linker to Thr315 of OGT on one chain; the whole chain is m5; Extra density near Ser396 and Ser399 hints at further glycosylation; also called TAB1 C-terminal domain; source: E. coli BL21 (DE3) pLysS, purified (Ni-NTA, anion exchange, gel filtration) as part of the fusion protein

- binding result [2]: binds
B3: 18-mer HCF1PRO repeat peptide (PPCETHETGTTNTATTAT) (peptide)
peptide: PPCETHETGTTNTATTAT
notes: host cell factor 1 (HCF1), one repeat of the proteolytic processing domain; In the crystal its C-terminus is joined by a GGG linker to Thr315 of OGT on one chain; the whole chain is m4; The PreScission site of the vector was replaced by the peptide and linker; also called HCF1 peptide; host cell factor 1 PPD repeat; source: E. coli BL21 (DE3) pLysS, purified (Ni-NTA, anion exchange, gel …)

- KM of the TAB1 peptide in steady-state kinetics of O-GlcNAc transfer (50 nM hOGT, 50 µM UDP-GlcNAc, UDP formation by fluorescence) [3]: 42 µM
Binder: KKPVSVPYSSAQSTSKTSVTLSL [free TAB1 peptide …]
